The source of these data is article PMC5665922, “Modulation of the Vault Protein-Protein Interaction for Tuning of Molecular Release” (Scientific Reports, 2017).

In data set [1] the target is T1, Histidine-tagged INT-interacting MVP domains (His-iMVP), major vault protein domains 3 to 5.
T1 construct: major vault protein (MVP), domains 3, 4 and 5 including the gap between domains 2 and 3, residues 102-276, PCR-amplified from the CP-MVP gene; numbers count on: PDB 2QZV; Cloned NdeI/BamHI in pET-28a; also called MVP domains 3 to 5; source: E. coli BL21(DE3), purified (HisTrap HP; SEC for SPR); not shown: His6, N-terminal, kept
As to the kind of experiment: SPR; Biacore 3000, His-iMVP immobilised on CM5 (1010 RU), His-INT/DSA/3H injected at 0.12, 0.25 or 0.5 μM, 25 °C, pH 6.0; apparent constants. To be noted: both partners purified.

Data set [2] addresses T1, Histidine-tagged INT-interacting MVP …. As to the kind of experiment: SPR; Biacore 3000, His-iMVP amine-coupled to CM5 (410, 1860 or 1240 RU), His-INT or variant injected, 25 °C, 50 mM PBS, 150 mM NaCl, pH 7.4; 1-to-1 Langmuir fit; apparent constants. The settings on record: both partners purified.
Data set [3] concerns the molecule itself. Nature of the data set: SEC; His-INT alone at 0.05, 0.01 and 0.005 mM on Superdex 75 10/300 GL; dimer (D) and monomer (M) peaks; dimer to monomers.

Numbering of substitutions follows the chain as printed.

B1: His-INT/DSA/3H (His-INT with histidines substituted at the interaction surface) (domain or fragment)
chain: CIQHWQDAVPWTELLSLQTEDGFWKLTPELGLILNLNTNGLHSFLKQKGIQSLGVKGRECLLDLIATMLVLQFIRTRLEKEGIVFKSLMKMDDASISRNIPWAFEAIKQASEWVRRTEGQYPSICPRLELGNHWDHHTKQLLGLQPISTVSPLHRVLHYSQG
B1: in data set [1], the Kd was found to be 24 nM, the koff turned out to be 0.000258 s⁻¹ and the kon is 10800 M⁻¹ s⁻¹. Further, in data set [2], the Kd is 90 nM, the koff was 0.00134 s⁻¹ and the kon was found to be 14900 M⁻¹ s⁻¹.

B2: Histidine-tagged vault-interacting domain of vault poly(ADP-ribose)-polymerase (His-INT) (domain or fragment, UniProt Q9UKK3 1563-1724, looked up)
chain: B1 chain with H133D, H136S, H137A
notes: vault poly(ADP-ribose)-polymerase (VPARP), C-terminal INT domain, residues 1563-1724 of GenBank AF158255; Cloned NdeI/XhoI in pET-28a; Monomer and dimer in equilibrium; also called wild-type INT; full-length His-INT; source: E. coli BL21(DE3), purified (HisTrap HP, SEC; M fraction used); not shown: His6, N-terminal, kept
In the case of B2, the “stoichiometry N” value in data set [3] is 2.
